Experimental findings from the supplement of paper PMC5998384 are described below.

The test system of data set [1] is HeLa Kyoto. The data set is described as follows: solubility in G1/S (NP-40 vs SDS abundance) (log2 ratio); higher = more soluble. To be noted: cell cycle stage: G1/S.
The test system of data set [2] is HeLa Kyoto. The data set is described as follows: melting temperature (median over replicates), in situ; higher = more thermally stable.
The subject of data set [3] is HeLa Kyoto. Put plainly: solubility change mitosis vs G1/S (difference of NP-40 vs SDS log2 ratios) (log2 ratio difference); higher = more soluble in mitosis.
The test system of data set [4] is HeLa Kyoto. The data set is described as follows: thermal stability score vs G1/S (z-score of summed log2 fold changes over temperatures); higher = more thermally stable than in G1/S.
The mark [5] stands for this setting: cell cycle stage: early G1 (4.5 h after nocodazole release).
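Wherever melting temperature (median over replicates), in situ is given: HeLa Kyoto cells synchronized by double thymidine or nocodazole block, proteins quantified by TMT10plex mass spectrometry, three independent biological replicates.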
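Wherever solubility change mitosis vs G1/S (difference of NP-40 vs SDS log2 ratios) is given: synchronized HeLa Kyoto cells (double thymidine block for G1/S, nocodazole release for mitosis), protein amounts in NP-40 versus SDS lysates quantified by mass spectrometry, three biological replicates.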
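Wherever solubility in G1/S (NP-40 vs SDS abundance) is given: HeLa Kyoto cells arrested at G1/S by double thymidine block, proteins quantified by TMT10plex mass spectrometry in mild NP-40 versus SDS extracts, three biological replicates.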
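Wherever thermal stability score vs G1/S (z-score of summed log2 fold changes over temperatures) is given: synchronized HeLa Kyoto cells, proteins quantified by TMT10plex mass spectrometry, three biological replicates, mitosis taken 0.5 h after nocodazole release, G1/S directly after double thymidine block.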

Chain of SLC7A1 (chain, as listed by the source): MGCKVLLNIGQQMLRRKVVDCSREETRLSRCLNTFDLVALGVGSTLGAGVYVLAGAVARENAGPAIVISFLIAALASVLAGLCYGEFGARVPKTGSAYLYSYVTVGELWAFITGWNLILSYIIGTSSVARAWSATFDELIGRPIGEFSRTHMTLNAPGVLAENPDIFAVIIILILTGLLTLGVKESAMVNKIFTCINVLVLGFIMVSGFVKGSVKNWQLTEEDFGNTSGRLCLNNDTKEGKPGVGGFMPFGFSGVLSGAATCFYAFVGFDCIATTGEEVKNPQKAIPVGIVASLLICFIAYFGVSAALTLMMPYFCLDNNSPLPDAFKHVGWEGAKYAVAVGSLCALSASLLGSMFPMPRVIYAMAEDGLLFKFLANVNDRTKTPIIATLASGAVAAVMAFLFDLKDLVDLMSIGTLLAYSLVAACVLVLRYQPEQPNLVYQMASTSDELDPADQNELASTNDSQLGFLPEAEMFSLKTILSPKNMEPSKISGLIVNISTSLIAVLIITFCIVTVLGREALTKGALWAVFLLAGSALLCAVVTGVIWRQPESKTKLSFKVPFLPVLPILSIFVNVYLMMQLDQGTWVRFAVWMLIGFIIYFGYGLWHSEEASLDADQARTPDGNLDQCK

“MATEGMILTNHDHQIRVGVLTVSDSCFRNLAEDRSGINLKDLVQDPSLLGGTISAYKIVPDEIEEIKETLIDWCDEKELNLILTTGGTGFAPRDVTPEATKEVIEREAPGMALAMLMGSLNVTPLGMLSRPVCGIRGKTLIINLPGSKKGSQECFQFILPALPHAIDLLRDAIVKVKEVHDELEDLPSPPPPLSPPPTTSPHKQTEDKGVQCEEEEEEKKDSGVASTEDSSSSHITAAAIAAKIPDSIISRGVQVLPRDTASLSTTPSESPRAQATSRLSTASCPTPKVQSRCSSKENILRASHSAVDITKVARRHRMSPFPLTSMDKAFITVLEMTPVLGTEIINYRDGMGRVLAQDVYAKDNLPPFPASVKDGYAVRAADGPGDRFIIGESQAGEQPTQTVMPGQVMRVTTGAPIPCGADAVVQVEDTELIRESDDGTEELEVRILVQARPGQDIRPIGHDIKRGECVLAKGTHMGPSEIGLLATVGVTEVEVNKFPVVAVMSTGNELLNPEDDLLPGKIRDSNRSTLLATIQEHGYPTINLGIVGDNPDDLLNALNEGISRADVIITSGGVSMGEKDYLKQVLDIDLHAQIHFGRVFMKPGLPTTFATLDIDGVRKIIFALPGNPVSAVVTCNLFVVPALRKMQGILDPRPTIIKARLSCDVKLDPRPEYHRCILTWHHQEPLPWAQSTGNQMSSRLMSMRSANGLLMLPPKTEQYVELHKGEVVDVMVIGRL [GPHN]”: in the data set on HeLa Kyoto [1], the “solubility in G1/S (log2)” value stood at 0.226. Also, the melting temperature worked out at 55.6 °C with HeLa Kyoto [2] (cell cycle stage: G1/S) and 54.6 °C in the data set on HeLa Kyoto [2] (cell cycle stage: mitosis). In addition, in the data set with HeLa Kyoto [3], the “solubility change mitosis (log2)” value was -0.057. The thermal stability score was -0.16 in the data set on HeLa Kyoto [4] (setting [5]) and -1.19 in the data set with HeLa Kyoto [4] (cell cycle stage: mitosis).
With “MAAAGAAATHLEVARGKRAALFFAAVAIVLGLPLWWKTTETYRASLPYSQISGLNALQLRLMVPVTVVFTRESVPLDDQEKLPFTVVHEREIPLKYKMKIKCRFQKAYRRALDHEEEALSSGSVQEAEAMLDEPQEQAEGSLTVYVISEHSSLLPQDMMSYIGPKRTAVVRGIMHREAFNIIGRRIVQVAQAMSLTEDVLAAALADHLPEDKWSAEKRRPLKSSLGYEITFSLLNPDPKSHDVYWDIEGAVRRYVQPFLNALGAAGNFSVDSQILYYAMLGVNPRFDSASSSYYLDMHSLPHVINPVESRLGSSAASLYPVLNFLLYVPELAHSPLYIQDKDGAPVATNAFHSPRWGGIMVYNVDSKTYNASVLPVRVEVDMVRVMEVFLAQLRLLFGIAQPQLPPKCLLSGPTSEGLMTWELDRLLWARSVENLATATTTLTSLAQLLGKISNIVIKDDVASEVYKAVAAVQKSAEELASGHLASAFVASQEAVTSSELAFFDPSLLHLLYFPDDQKFAIYIPLFLPMAVPILLSLVKIFLETRKSWRKPEKTD [PIGS]”, the “solubility in G1/S (log2)” value with HeLa Kyoto [1] is 0.0826. Moreover, the melting temperature in the data set on HeLa Kyoto [2] (cell cycle stage: G1/S) turned out to be 52.6 °C; in the data set on HeLa Kyoto [2] (cell cycle stage: mitosis), 53.1 °C. The “solubility change mitosis (log2)” value in the data set on HeLa Kyoto [3] was -0.13. Moreover, the thermal stability score stood at 2.4 in the data set on HeLa Kyoto [4] (setting [5]) and 4.4 with HeLa Kyoto [4] (cell cycle stage: mitosis).
Turning to SLC7A1, the “solubility in G1/S (log2)” value with HeLa Kyoto [1] is -0.215. The melting temperature turned out to be 61.5 °C in the data set with HeLa Kyoto [2] (cell cycle stage: G1/S) and 60.9 °C in the data set with HeLa Kyoto [2] (cell cycle stage: mitosis). Besides, the “solubility change mitosis (log2)” value in the data set with HeLa Kyoto [3] is -0.171. The results for the thermal stability score in the data set with HeLa Kyoto [4] (setting [5]) and with HeLa Kyoto [4] (cell cycle stage: mitosis) were -2.64 and -4.52, respectively.
Turning to “MRFRIYKRKVLILTLVVAACGFVLWSSNGRQRKNEALAPPLLDAEPARGAGGRGGDHPSVAVGIRRVSNVSAASLVPAVPQPEADNLTLRYRSLVYQLNFDQTLRNVDKAGTWAPRELVLVVQVHNRPEYLRLLLDSLRKAQGIDNVLVIFSHDFWSTEINQLIAGVNFCPVLQVFFPFSIQLYPNEFPGSDPRDCPRDLPKNAALKLGCINAEYPDSFGHYREAKFSQTKHHWWWKLHFVWERVKILRDYAGLILFLEEDHYLAPDFYHVFKKMWKLKQQECPECDVLSLGTYSASRSFYGMADKVDVKTWKSTEHNMGLALTRNAYQKLIECTDTFCTYDDYNWDWTLQYLTVSCLPKFWKVLVPQIPRIFHAGDCGMHHKKTCRPSTQSAQIESLLNNNKQYMFPETLTISEKFTVVAISPPRKNGGWGDIRDHELCKSYRRLQ [MGAT2]”, in the data set with HeLa Kyoto [1], the “solubility in G1/S (log2)” value was -0.0662. Besides, the melting temperature came to 53.8 °C in the data set with HeLa Kyoto [2] (cell cycle stage: G1/S) and 53.2 °C with HeLa Kyoto [2] (cell cycle stage: mitosis). Further, in the data set with HeLa Kyoto [3], the “solubility change mitosis (log2)” value was -0.141. Also, the thermal stability score in the data set with HeLa Kyoto [4] (setting [5]) is -0.501; in the data set on HeLa Kyoto [4] (cell cycle stage: mitosis) it was -0.689.
Regarding “MLPLLRCVPRVLGSSVAGLRAAAPASPFRQLLQPAPRLCTRPFGLLSVRAGSERRPGLLRPRGPCACGCGCGSLHTDGDKAFVDFLSDEIKEERKIQKHKTLPKMSGGWELELNGTEAKLVRKVAGEKITVTFNINNSIPPTFDGEEEPSQGQKVEEQEPELTSTPNFVVEVIKNDDGKKALVLDCHYPEDEVGQEDEAESDIFSIREVSFQSTGESEWKDTNYTLNTDSLDWALYDHLMDFLADRGVDNTFADELVELSTALEHQEYITFLEDLKSFVKSQ [C1QBP]”, the “solubility in G1/S (log2)” value with HeLa Kyoto [1] turned out to be 0.515. The melting temperature was 52.6 °C in the data set on HeLa Kyoto [2] (cell cycle stage: G1/S) and 52 °C in the data set with HeLa Kyoto [2] (cell cycle stage: mitosis). Moreover, the “solubility change mitosis (log2)” value in the data set on HeLa Kyoto [3] is 0.179. Also, the figures for the thermal stability score in the data set with HeLa Kyoto [4] (setting [5]) and in the data set on HeLa Kyoto [4] (cell cycle stage: mitosis) were -1.11 and -3.14, respectively.
